Assay results from the supplement of paper PMC9732359.
± gives the uncertainty stated by the source.

Assay: protein stability index of a GFP-peptide fusion (yeast GPS) (PSI 1-4); higher = more stable; sorted into four equal gates, so the index is relative within each strain
Outline: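 Sequencing reads from sorted gates were used to score each peptide. The library consisted of tiled 17-residue yeast protein peptides fused downstream of GFP on a Cherry-expressing plasmid, pooled and carried in yeast. Mid-log cultures in leucine-free medium were split into four equal gates by GFP/Cherry ratio, and each gate's plasmids were PCR-amplified and Illumina-sequenced. The protein stability index adds up, over all gates, the read frequency multiplied by the gate number.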

CRYSCLALERMVPKRST [YCS4]
protein stability index (doa10∆): 2.71 ± 0.27
protein stability index (ubr1∆): 2.02 ± 0.18

LSLNLGDYGSAKCNSLL [POP5]
protein stability index (doa10∆): 2.47 ± 0.061
protein stability index (pdr5∆): 2.94 ± 0.077
protein stability index (san1∆): 2.57 ± 0.081
protein stability index (ubr1∆): 2.46 ± 0.093

NNNSNNIMSASGGLFGN [YGL172W/NUP49]
protein stability index (doa10∆): 2.97 ± 0.041
protein stability index (pdr5∆): 3.02 ± 0.041
protein stability index (san1∆): 3.13 ± 0.051
protein stability index (ubr1∆): 3.2 ± 0.035

VQFGLNEETFTVPELEI [ARP9]
protein stability index (doa10∆): 3.17 ± 0.076
protein stability index (pdr5∆): 3.02 ± 0.096
protein stability index (san1∆): 2.78 ± 0.11
protein stability index (ubr1∆): 3.19 ± 0.082

KKIRNVPVRDGVTIEFS [RPL9A]
protein stability index (doa10∆): 2.59 ± 0.11
protein stability index (pdr5∆): 2.55 ± 0.15
protein stability index (san1∆): 2.43 ± 0.16
protein stability index (ubr1∆): 3.21 ± 0.092

DNCCDFKVRTNLNDKFG [MED1]
protein stability index (doa10∆): 2.74 ± 0.19
protein stability index (pdr5∆): 3.22 ± 0.2
protein stability index (san1∆): 2.79 ± 0.15
protein stability index (ubr1∆): 3.08 ± 0.092

KTANSSSDAFEKLKVNM [YIL149C/MLP2]
protein stability index (doa10∆): 2.46 ± 0.053
protein stability index (pdr5∆): 2.54 ± 0.065
protein stability index (san1∆): 2.95 ± 0.065
protein stability index (ubr1∆): 3.02 ± 0.051

TKLHSGDYGEEEDADQE [SRB8]
protein stability index (doa10∆): 2.5 ± 0.16
protein stability index (pdr5∆): 2.58 ± 0.12
protein stability index (ubr1∆): 2.38 ± 0.2

TLDNPLLVDKDANGVSL [YJL039C/NUP192]
protein stability index (doa10∆): 3.17 ± 0.057
protein stability index (pdr5∆): 3.12 ± 0.048
protein stability index (san1∆): 3.08 ± 0.038
protein stability index (ubr1∆): 3.13 ± 0.035

YPEYDQITKFPKYRDNL [SSN3]
protein stability index (doa10∆): 2.21 ± 0.18
protein stability index (pdr5∆): 2.4 ± 0.13
protein stability index (san1∆): 2.24 ± 0.12
protein stability index (ubr1∆): 2.25 ± 0.047

WDHPVIAGVITRSKRLS [CSN12]
protein stability index (doa10∆): 2.86 ± 0.17
protein stability index (pdr5∆): 2.82 ± 0.11
protein stability index (san1∆): 3.13 ± 0.11
protein stability index (ubr1∆): 3.02 ± 0.068

ENVQIGEDFMEVDYEDK [SRB4]
protein stability index (doa10∆): 3.48 ± 0.13
protein stability index (pdr5∆): 1.97 ± 0.17
protein stability index (ubr1∆): 2.2 ± 0.084

NECIEERVPKTQLDKLR [SMB1]
protein stability index (doa10∆): 3.1 ± 0.051
protein stability index (pdr5∆): 3.07 ± 0.062
protein stability index (san1∆): 3.136 ± 0.03
protein stability index (ubr1∆): 3.24 ± 0.046

TNSHYNNTNTDNVSGLT [SNF2]
protein stability index (doa10∆): 3.19 ± 0.062
protein stability index (pdr5∆): 3.31 ± 0.046
protein stability index (san1∆): 3.37 ± 0.044
protein stability index (ubr1∆): 3.25 ± 0.034

FQNSYKPALKVSKEGLY [YMR129W/POM152]
protein stability index (doa10∆): 2.42 ± 0.22
protein stability index (pdr5∆): 3.12 ± 0.11
protein stability index (san1∆): 3.02 ± 0.082
protein stability index (ubr1∆): 3.07 ± 0.1

TELLDEFIAAVNNPQEE [RPN10]
protein stability index (doa10∆): 3.01 ± 0.17
protein stability index (pdr5∆): 3.17 ± 0.14
protein stability index (san1∆): 3.08 ± 0.064
protein stability index (ubr1∆): 2.83 ± 0.15

GYDPIVSTRAIDLLWKG [PRP28]
protein stability index (doa10∆): 2.12 ± 0.18
protein stability index (pdr5∆): 2.03 ± 0.091
protein stability index (san1∆): 1.47 ± 0.11
protein stability index (ubr1∆): 2.6 ± 0.079

EREQCRAGGAAASLIMP [PRE7]
protein stability index (doa10∆): 3.02 ± 0.24
protein stability index (pdr5∆): 2.92 ± 0.19
protein stability index (san1∆): 3.43 ± 0.18
protein stability index (ubr1∆): 2.89 ± 0.1

RNNSNNKTSNNNNVTAV [SWI1]
protein stability index (doa10∆): 2.73 ± 0.05
protein stability index (pdr5∆): 2.6 ± 0.054
protein stability index (san1∆): 1.74 ± 0.096
protein stability index (ubr1∆): 2.81 ± 0.044

KPLTENCKKKKKRKKKN [RMP1]
protein stability index (doa10∆): 2.97 ± 0.19
protein stability index (pdr5∆): 1.89 ± 0.28
protein stability index (san1∆): 1.5 ± 0.14
protein stability index (ubr1∆): 3.38 ± 0.19

YNRRQDKKNKRLKFGHR [SNF2]
protein stability index (doa10∆): 3.01 ± 0.092
protein stability index (pdr5∆): 3.14 ± 0.09
protein stability index (san1∆): 3.22 ± 0.093
protein stability index (ubr1∆): 3.09 ± 0.095

TGPKQQEITTNLENHFK [SCL1]
protein stability index (doa10∆): 2.94 ± 0.044
protein stability index (pdr5∆): 2.97 ± 0.037
protein stability index (san1∆): 3.04 ± 0.032
protein stability index (ubr1∆): 2.9 ± 0.03

ADVSKLMYSITFHHHGR [SRB2]
protein stability index (doa10∆): 2.82 ± 0.053
protein stability index (pdr5∆): 3.01 ± 0.056
protein stability index (san1∆): 2.79 ± 0.049
protein stability index (ubr1∆): 2.98 ± 0.04

NQEDEKNLQRESCEDIL [RTT102]
protein stability index (ubr1∆): 3.17 ± 0.2

DEGTALSRLGLKRYCCR [RPB10]
protein stability index (doa10∆): 3.38 ± 0.11
protein stability index (pdr5∆): 3.23 ± 0.15
protein stability index (san1∆): 3.53 ± 0.079
protein stability index (ubr1∆): 2.79 ± 0.12

LLKLLTRLVQLREFRIT [GRR1]
protein stability index (doa10∆): 1.89 ± 0.053
protein stability index (pdr5∆): 1.27 ± 0.044
protein stability index (san1∆): 1.23 ± 0.13
protein stability index (ubr1∆): 1.08 ± 0.052

QELEKRMPMDFKGVIVK [PRE1]
protein stability index (doa10∆): 1.77 ± 0.18
protein stability index (san1∆): 2.8 ± 0.12
protein stability index (ubr1∆): 1.81 ± 0.071

SPERFATLGIDPPKGIL [RPT1]
protein stability index (doa10∆): 2.74 ± 0.066
protein stability index (pdr5∆): 2.76 ± 0.058
protein stability index (san1∆): 2.42 ± 0.078
protein stability index (ubr1∆): 2.77 ± 0.045

DTVAELQAQLDYLNAEL [FAS2]
protein stability index (doa10∆): 2.81 ± 0.092
protein stability index (pdr5∆): 3.08 ± 0.081
protein stability index (san1∆): 3.12 ± 0.049
protein stability index (ubr1∆): 2.96 ± 0.09

AMDLAQMLIQGVWDVDN [BRR2]
protein stability index (doa10∆): 2.85 ± 0.064
protein stability index (pdr5∆): 2.78 ± 0.067
protein stability index (san1∆): 2.18 ± 0.058
protein stability index (ubr1∆): 2.12 ± 0.052

LILILVISFGQPKLNPM [SWI1]
protein stability index (doa10∆): 1.68 ± 0.054
protein stability index (pdr5∆): 1.61 ± 0.042
protein stability index (san1∆): 1.78 ± 0.092
protein stability index (ubr1∆): 2.09 ± 0.04

VRAVSITSFGFGQKGGQ [FAS2]
protein stability index (doa10∆): 2.92 ± 0.19
protein stability index (pdr5∆): 2.96 ± 0.23
protein stability index (san1∆): 1.74 ± 0.21
protein stability index (ubr1∆): 3.31 ± 0.27

DVKSSDSLKLNSKPVEL [YJL041W/NSP1]
protein stability index (doa10∆): 3.27 ± 0.098
protein stability index (pdr5∆): 3.09 ± 0.12
protein stability index (san1∆): 3.1 ± 0.14
protein stability index (ubr1∆): 3.23 ± 0.12

PDTKISSAAILGLGIAF [RPN1]
protein stability index (doa10∆): 2.28 ± 0.043
protein stability index (pdr5∆): 2.3 ± 0.058
protein stability index (san1∆): 2.49 ± 0.087
protein stability index (ubr1∆): 2.06 ± 0.051

YSLLLASKGIDRLSLQD [ECM29]
protein stability index (doa10∆): 2.45 ± 0.2
protein stability index (pdr5∆): 3.23 ± 0.16
protein stability index (ubr1∆): 2.83 ± 0.11

THAVGNNCEDFVSRPDR [FAS1]
protein stability index (doa10∆): 3.16 ± 0.12
protein stability index (pdr5∆): 3.08 ± 0.18
protein stability index (san1∆): 2.97 ± 0.072
protein stability index (ubr1∆): 3.04 ± 0.087

NEIESRQLTSLGSKKEL [SNU114]
protein stability index (doa10∆): 3.17 ± 0.075
protein stability index (pdr5∆): 3.28 ± 0.078
protein stability index (san1∆): 3.31 ± 0.092
protein stability index (ubr1∆): 3.37 ± 0.058

DDDVTPSTKVASSAVMN [YLR335W/NUP2]
protein stability index (doa10∆): 3.5 ± 0.14
protein stability index (pdr5∆): 3.19 ± 0.083
protein stability index (san1∆): 3.3 ± 0.065
protein stability index (ubr1∆): 3.26 ± 0.062

FPEVFQVNIRFLLHNSE [SRB8]
protein stability index (doa10∆): 1.64 ± 0.1
protein stability index (pdr5∆): 1.73 ± 0.13
protein stability index (ubr1∆): 2.62 ± 0.17

AALERLKIFEGIPPPYD [RPL16B]
protein stability index (doa10∆): 1.62 ± 0.12
protein stability index (pdr5∆): 2.52 ± 0.089
protein stability index (san1∆): 1.34 ± 0.23
protein stability index (ubr1∆): 1.27 ± 0.064

DPPFRIEEQGWGGFPLD [TAF14]
protein stability index (doa10∆): 3.32 ± 0.055
protein stability index (pdr5∆): 3.33 ± 0.052
protein stability index (san1∆): 3.44 ± 0.048
protein stability index (ubr1∆): 3.34 ± 0.047

PLLEAKKLVWPLHLIFA [SSN2]
protein stability index (doa10∆): 1.61 ± 0.083
protein stability index (pdr5∆): 1.29 ± 0.059
protein stability index (san1∆): 1.24 ± 0.11
protein stability index (ubr1∆): 1.19 ± 0.06

RQQQQRSILQSLNPALQ [SWI1]
protein stability index (doa10∆): 1.76 ± 0.051
protein stability index (pdr5∆): 1.92 ± 0.06
protein stability index (san1∆): 1.54 ± 0.084
protein stability index (ubr1∆): 1.89 ± 0.053

MNIPQRQFSNEEVNRCY [SNF2]
protein stability index (doa10∆): 2.44 ± 0.1
protein stability index (pdr5∆): 3 ± 0.14
protein stability index (san1∆): 2.96 ± 0.26
protein stability index (ubr1∆): 3 ± 0.065

SCRNPEHTDVIDELIDT [YIL149C/MLP2]
protein stability index (doa10∆): 2.68 ± 0.054
protein stability index (pdr5∆): 2.76 ± 0.061
protein stability index (san1∆): 2.58 ± 0.047
protein stability index (ubr1∆): 2.58 ± 0.035

LQQKHELDTASRILKAQ [YGR119C/NUP57]
protein stability index (doa10∆): 2.73 ± 0.045
protein stability index (pdr5∆): 2.83 ± 0.046
protein stability index (san1∆): 2.53 ± 0.052
protein stability index (ubr1∆): 3.03 ± 0.034

MGSLINGITLALIDAGI [SKI6]
protein stability index (doa10∆): 1.89 ± 0.1
protein stability index (pdr5∆): 2.1 ± 0.055
protein stability index (san1∆): 2.05 ± 0.075
protein stability index (ubr1∆): 2 ± 0.051

NFQISKKMDDYIHRIGR [PRP28]
protein stability index (doa10∆): 3.12 ± 0.24
protein stability index (san1∆): 3.21 ± 0.13

YISKAQNDQWSIQMEFM [SSN2]
protein stability index (doa10∆): 2.79 ± 0.064
protein stability index (pdr5∆): 2.73 ± 0.071
protein stability index (san1∆): 2.71 ± 0.059
protein stability index (ubr1∆): 3.04 ± 0.053
